Patent US20200268847A1, “Methods of Treating Newly Diagnosed Multiple Myeloma with a Combination of An Antibody that Specifically Binds CD38, Lenalidomide and Dexamethasone” (Janssen Biotech, Inc., priority 2019, published 2020)

System: patients with newly diagnosed multiple myeloma ineligible for HDC and ASCT
Assay: MAIA: safety, adverse events graded by NCI-CTCAE version 4, treatment discontinuations
Source text: Safety will be measured by adverse events, laboratory test results, ECGs, vital sign measurements, physical examination findings, and assessment of ECOG performance status score.
Safety analyses included adverse event assessment graded in severity according to NCI-CTCAE version 4, electrocardiograms, clinical laboratory testing, physical examinations, and vital signs.
The safety population included patients who received any dose of trial treatment.

## Daratumumab (DARZALEX®): antibody that specifically binds CD38, heavy chain of SEQ ID NO: 9 and light chain of SEQ ID NO: 10 [reference compound]
% of patients with infusion reactions
  infusion-related reactions occurring during the first dose: 98.0%
% of patients, any grade
  infusion-related reactions: 40.9%
Grade 4 hypertension
  patients who discontinued daratumumab treatment due to an infusion-related reaction: one
In vivo
  infusion-related reactions, grade 3 or 4 events: 2.7%
  infusion-related reactions, grade 5 events: no grade 5 events were reported
